In the Human Domainome abundance scans (Beltran et al. 2025):
± gives the uncertainty stated by the source.

B1: TGF-beta-activated kinase 1 and MAP3K7-binding protein 3, residues 12 to 50; numbered along this chain, Q8N5C8 (parent)
chain: VLHDLRQRFPEIPEGVVSQCMLQNNNNLEACCRALSQES

Variants of: B1
Test: abundance fitness (aPCA) (normalised: wild type 0, dead -1); higher = more abundant; growth selection in yeast, the domain comes from the species named
Conditions: Homo sapiens

Abundance fitness of substitutions, site by site:
I12: R -0.788 ± 0.077; S -0.825 ± 0.12; C -0.467 ± 0.078; D -1.04 ± 0.24; A -0.533 ± 0.068; E -0.619 ± 0.076; V -0.042 ± 0.042; G -0.981 ± 0.091; K -0.577 ± 0.082; W -0.737 ± 0.11; T -0.276 ± 0.15; Q -0.43 ± 0.073; L -0.094 ± 0.046; M -0.12 ± 0.059; H -0.209 ± 0.17
Q19: L -0.1 ± 0.049; K 0.139 ± 0.049; S -0.039 ± 0.045; T -0.077 ± 0.059; C -0.114 ± 0.14; W -0.135 ± 0.052; E 0.128 ± 0.045; M -0.004 ± 0.07; I 0.384 ± 0.15; N -0.019 ± 0.1; H -0.175 ± 0.12; P -0.547 ± 0.18; Y -0.345 ± 0.086; R 0.135 ± 0.037; V -0.273 ± 0.047; A 0.186 ± 0.04
F9: D -0.616 ± 0.16; M -0.428 ± 0.092; L -0.935 ± 0.093; Y -0.04 ± 0.26; K -0.544 ± 0.13; G -0.818 ± 0.061; V -0.865 ± 0.087; R -0.751 ± 0.057; N -0.559 ± 0.17; W -0.964 ± 0.16; T -0.798 ± 0.15; E -0.682 ± 0.057; C -0.65 ± 0.067; I -0.784 ± 0.33; S -0.597 ± 0.096
Q23: H 0.168 ± 0.14; T -0.275 ± 0.077; G -0.722 ± 0.058; P -0.787 ± 0.1; R -0.06 ± 0.04; D 0.271 ± 0.083; I -0.649 ± 0.24; A 0.107 ± 0.041; E 0.215 ± 0.048; L -0.108 ± 0.05; S -0.206 ± 0.052; N -0.046 ± 0.1; M -0.105 ± 0.059; K -0.189 ± 0.1; V -0.167 ± 0.043
N24: L -0.73 ± 0.07; H 0.178 ± 0.077; C -0.351 ± 0.054; W -0.638 ± 0.055; P -0.989 ± 0.11; R -1.08 ± 0.086; G -0.878 ± 0.059; T -0.871 ± 0.093; S -0.848 ± 0.09; Q -0.623 ± 0.12; M -0.679 ± 0.096; V -0.894 ± 0.073; E -0.329 ± 0.062; A -0.747 ± 0.061; K -0.843 ± 0.23
P13: R -0.782 ± 0.063; G -0.666 ± 0.046; T -0.767 ± 0.092; M -0.517 ± 0.085; D -0.22 ± 0.074; S -0.42 ± 0.051; C -0.766 ± 0.082; I -0.452 ± 0.33; Q -0.62 ± 0.15; W -0.771 ± 0.088; H -0.694 ± 0.14; Y -0.926 ± 0.48; A -0.513 ± 0.055; V -0.774 ± 0.06; K -0.51 ± 0.086
N26: S -0.289 ± 0.053; K -0.799 ± 0.2; F 0.164 ± 0.25; H -0.316 ± 0.12; R -0.746 ± 0.057; L -0.685 ± 0.097; G -0.144 ± 0.04; D -0.435 ± 0.12; M -0.317 ± 0.088; A -0.498 ± 0.049; E -0.475 ± 0.062; C -0.365 ± 0.092; V -0.816 ± 0.088; P -1.32 ± 0.45; W -0.808 ± 0.15
S18: D -0.434 ± 0.081; H 0.177 ± 0.086; P -0.939 ± 0.13; V 0.218 ± 0.039; T 0.136 ± 0.043; M 0.222 ± 0.045; G -0.399 ± 0.038; L 0.23 ± 0.04; I -0.035 ± 0.092; F -0.17 ± 0.089; Y -0.196 ± 0.19; K 0.278 ± 0.056; C -0.336 ± 0.092; A 0.13 ± 0.039; E 0.191 ± 0.041; R 0.345 ± 0.035; Q 0.268 ± 0.043
R8: K 0.054 ± 0.095; G -0.944 ± 0.065; I -0.403 ± 0.069; H -0.907 ± 0.4; T -0.877 ± 0.21; C -0.987 ± 0.19; E -0.469 ± 0.077; D -0.722 ± 0.27; P -1.08 ± 0.24; M 0.071 ± 0.092; A -0.544 ± 0.066; W -0.975 ± 0.14; Q -0.73 ± 0.29; L -0.168 ± 0.052
P10: L -1.16 ± 0.32; T -0.906 ± 0.17; V -0.921 ± 0.076; S -0.595 ± 0.11; M -0.806 ± 0.39; E -0.758 ± 0.064; Q -0.956 ± 0.22; D -0.672 ± 0.15; A -0.943 ± 0.098; G -0.78 ± 0.066; W -0.962 ± 0.17; R -0.96 ± 0.12; K -1.07 ± 0.17
E11: D 0.111 ± 0.069; Y -0.324 ± 0.16; A -0.511 ± 0.064; F -0.479 ± 0.13; Q -0.166 ± 0.06; R -0.444 ± 0.046; T -0.214 ± 0.057; G -0.13 ± 0.041; P -0.764 ± 0.31; N -0.115 ± 0.1; S -0.189 ± 0.05; L -0.416 ± 0.067; H -0.11 ± 0.11; M -0.213 ± 0.046; V -0.726 ± 0.099; W -0.126 ± 0.05; K -0.535 ± 0.41
G15: E 0.281 ± 0.045; M -0.079 ± 0.06; D 0.217 ± 0.058; I -0.154 ± 0.24; L -0.162 ± 0.041; V -0.016 ± 0.037; Y 0.139 ± 0.065; H 0.25 ± 0.081; P 0.003 ± 0.049; R 0.074 ± 0.037; N 0.05 ± 0.059; F -0.138 ± 0.083; A 0.153 ± 0.051; K 0.135 ± 0.056; S 0.122 ± 0.041; C 0.03 ± 0.044; W 0.087 ± 0.039
L22: V 0.012 ± 0.058; K 0.264 ± 0.068; C -0.377 ± 0.079; D -0.06 ± 0.073; F -0.188 ± 0.06; G -0.266 ± 0.039; W -0.292 ± 0.045; Q 0.057 ± 0.067; S -0.045 ± 0.044; T 0.026 ± 0.054; Y -0.213 ± 0.1; A 0.173 ± 0.039; R 0.152 ± 0.041; M 0.041 ± 0.056; E 0.164 ± 0.055; H 0.023 ± 0.055
Q7: R 0.103 ± 0.038; K 0.003 ± 0.12; V -0.135 ± 0.047; S 0.026 ± 0.061; P -1.02 ± 0.17; W -1.08 ± 0.16; D -0.083 ± 0.1; E 0.072 ± 0.046; I -0.077 ± 0.07; M 0.064 ± 0.064; N -0.225 ± 0.062; F -0.634 ± 0.1; G -0.413 ± 0.042; T -0.089 ± 0.052; C -0.658 ± 0.14
E14: R -0.668 ± 0.052; L -0.142 ± 0.041; N -0.738 ± 0.14; Q -0.255 ± 0.062; V -0.24 ± 0.036; H 0.117 ± 0.19; G -0.829 ± 0.066; C -0.613 ± 0.1; F -1.02 ± 0.3; K -0.831 ± 0.13; P -0.143 ± 0.072; Y -0.256 ± 0.18; S -0.416 ± 0.044; D -0.308 ± 0.1; I -0.246 ± 0.064; M -0.377 ± 0.11; T -0.549 ± 0.093
M21: L -0.015 ± 0.043; S -0.718 ± 0.079; G -0.811 ± 0.072; Q -0.937 ± 0.12; F -0.487 ± 0.093; W -0.732 ± 0.11; V -0.349 ± 0.054; P -0.68 ± 0.26; R -0.872 ± 0.065; T -1.17 ± 0.3; Y -0.189 ± 0.18; H -0.82 ± 0.19; E -0.695 ± 0.074; D -0.691 ± 0.14; A -0.347 ± 0.051
R6: M 0.142 ± 0.056; E -0.212 ± 0.078; V -0.211 ± 0.049; P -0.91 ± 0.21; Q -0.19 ± 0.078; H -0.036 ± 0.15; T -0.375 ± 0.098; S -0.319 ± 0.074; K 0.11 ± 0.067; G -0.486 ± 0.041; A -0.279 ± 0.045; C 0.107 ± 0.053; L 0.056 ± 0.052; W -0.809 ± 0.14
L5: V -0.896 ± 0.097; W -0.885 ± 0.14; M -0.493 ± 0.074; Q -0.589 ± 0.14; S -0.914 ± 0.18; K -0.532 ± 0.08; R -0.722 ± 0.064
N27: C -0.831 ± 0.26; G -0.78 ± 0.073; A -0.643 ± 0.079
V17: R -0.836 ± 0.059; K -0.955 ± 0.14; F -0.65 ± 0.26; M -0.395 ± 0.15; C -0.566 ± 0.1; L 0.084 ± 0.042; S -0.815 ± 0.093; A -0.647 ± 0.065; I 0.266 ± 0.056; T -1.07 ± 0.2; P -0.568 ± 0.14; Y -0.811 ± 0.13; Q -0.81 ± 0.14; H -0.7 ± 0.21; G -0.795 ± 0.055; D -0.624 ± 0.11; N -0.468 ± 0.46
C20: L -0.06 ± 0.044; T 0.063 ± 0.087; H -0.576 ± 0.28; E -0.082 ± 0.053; S -0.103 ± 0.043; D 0.048 ± 0.16; R -0.405 ± 0.056; M 0.028 ± 0.082; I 0.109 ± 0.14; G -0.26 ± 0.039; F -0.096 ± 0.095; A 0.173 ± 0.042; Q -0.175 ± 0.07; W -0.37 ± 0.075; P -0.51 ± 0.13; Y 0.007 ± 0.28
N25: P -0.615 ± 0.15; C -0.5 ± 0.099; D -0.015 ± 0.082; T -0.788 ± 0.091; V -0.904 ± 0.095; A -0.425 ± 0.054; G -0.108 ± 0.038; M -0.548 ± 0.086; Q -0.306 ± 0.075; W -0.819 ± 0.098; R -0.39 ± 0.045; S -0.365 ± 0.051
V16: C -0.638 ± 0.11; P -0.927 ± 0.17; S -0.58 ± 0.074; T -0.16 ± 0.073; D -0.264 ± 0.069; N -0.552 ± 0.14; L -0.228 ± 0.04; M -0.073 ± 0.052; Y 0.122 ± 0.32; H -0.372 ± 0.2; R 0.032 ± 0.038; G -0.711 ± 0.059; E -0.105 ± 0.056; K -0.114 ± 0.066; W -0.683 ± 0.061; Q -0.155 ± 0.053; F -0.71 ± 0.14; A -0.297 ± 0.046
